Test results from patent US20100280227A1 (Genentech, published 2010).
Where two headings read alike, the source gives them in different places.

B1: Hu2.1-94 IgG (antibody, V domains shown)
VH: EVQLVESGGGLVQPGGSLRLSCAASGDSITRGYWNWVRQAPGKGLEWVGYINYSGTTYYNPSLKSRFTISRDTSKNTLYLQMNSLRAEDTAVYYCATSHNTGEMDYWGQGTLVTVSS
VL: DIQMTQSPSSLSASVGDRVTITCRASESVDDYGISFMHWYQQKPGKAPKLLIYRASDLESGVPSRFSGSGSGTDFTLTISSLQPEDFATYYCQQTSKDPWTFGQGTKVEIKR
notes: humanized IgG; also called h2.1-94
B2: 35 (Fab, V domains shown)
VH: EVQLVESGGGLVQPGGSLRLSCAASGFTISSNSIHWVRQAPGKGLEWVAWVTPGVGSTDYADSVKGRFTISADTSKNTAYLQMNSLRAEDTAVYYCARRVCYNRLGVCAGGMDYWGQGTLVTVSS
VL: DIQMTQSPSSLSASVGDRVTITCRASQDVSTAVAWYQQKPGKAPKLLIYSASFLYSGVPSRFSGSGSGTDFTLTISSLQPEDFATYYCQQSLMTPPTFGQGTKVEIKR
notes: also called V3-35
B3: V3-46s-7 phage clone (Fab, V domains shown)
VH: EVQLVESGGGLVQPGGSLRLSCAASGFTISSSSIHWVRQAPGKGLEWVAWVLPSVGFTDYADSVKGRFTISADTSKNTAYLQMNSLRAEDTAVYYCARRVCYNRLGVCAGGMDYWGQGTLVTVSS
VL: DIQMTQSPSSLSASVGDRVTITCRASEDISSSVAWYQQKPGKAPKLLIFSASFLFSGVPSRFSGSGSGTDFTLTISSLQPEDFATYYCQQSEVSPPTFGQGTKVEIK
B4: V3-46s-29 phage clone (Fab, V domains shown)
VH: EVQLVESGGGLVQPGGSLRLSCAASGFTISSSSIHWVRQAPGKGLEWVAWVLPSVGFTDYADSVKGRFTISADTSKNTAYLQMNSLRAEDTAVYYCARRVCYNRLGVCAGGMDYWGQGTLVTVSS
VL: DIQMTQSPSSLSASVGDRVTITCRASEEIATAVAWYQQKPGKAPKLLIFAASFLYSGVPSRFSGSGSGTDFTLTISSLQPEDFATYYCQQSEVSPPTFGQGTKVEIK
B5: 41 (Fab, V domains shown)
VH: EVQLVESGGGLVQPGGSLRLSCAASGFSIRNNSIHWVRQAPGKGLEWVAWVLPSNGVTDYADSVKGRFTISADTSKNTAYLQMNSLRAEDTAVYYCARRVCYNRLGVCAGGMDYWGQGTLVTVSS
VL: DIQMTQSPSSLSASVGDRVTITCRASQDVSTAVAWYQQKPGKAPKLLIYSASFLYSGVPSRFSGSGSGTDFTLTISSLQPEDFATYYCQQSGISPPTFGQGTKVEIKR
notes: also called V3-41; clone 41
B6: V3-46 phage clone (Fab, V domains shown)
VH: EVQLVESGGGLVQPGGSLRLSCAASGFTISNSSIHWVRQAPGKGLEWVAWVLPSVGFTDYADSVKGRFTISADTSKNTAYLQMNSLRAEDTAVYYCARRVCYNRLGVCAGGMDYWGQGTLVTVSS
VL: DIQMTQSPSSLSASVGDRVTITCRASQDVSTAVAWYQQKPGKAPKLLIYSASFLYSGVPSRFSGSGSGTDFTLTISSLQPEDFATYYCQQSQISPPTFGQGTKVEIKR
notes: also called V3-46 WT; clone 46
B7: V3-46s-33 phage clone (Fab, V domains shown)
VH: EVQLVESGGGLVQPGGSLRLSCAASGFTISSSSIHWVRQAPGKGLEWVAWVLPSVGFTDYADSVKGRFTISADTSKNTAYLQMNSLRAEDTAVYYCARRVCYNRLGVCAGGMDYWGQGTLVTVSS
VL: DIQMTQSPSSLSASVGDRVTITCRASEEISTAVAWYQQKPGKAPKLLIFSASYLYSGVPSRFSGSGSGTDFTLTISSLQPEDFATYYCQQSEVSPPTFGQGTKVEIK
B8: 37 (Fab, V domains shown)
VH: EVQLVESGGGLVQPGGSLRLSCAASGFSISRRSIHWVRQAPGKGLEWVAWITPLYGSTHYADSVKGRFTISADTSKNTAYLQMNSLRAEDTAVYYCARRVCYNRLGVCAGGMDYWGQGTLVTVSS
VL: DIQMTQSPSSLSASVGDRVTITCRASQDVSTAVAWYQQKPGKAPKLLIYSASFLYSGVPSRFSGSGSGTDFTLTISSLQPEDFATYYCQQSRISPPTFGQGTKVEIKR
notes: also called V3-37
B9: V3-46s-37 phage clone (Fab, V domains shown)
VH: EVQLVESGGGLVQPGGSLRLSCAASGFTISSSSIHWVRQAPGKGLEWVAWVLPSVGFTDYADSVKGRFTISADTSKNTAYLQMNSLRAEDTAVYYCARRVCYNRLGVCAGGMDYWGQGTLVTVSS
VL: DIQMTQSPSSLSASVGDRVTITCRASQDVATAVAWYQQKPGKAPKLLIFAASFLYSGVPSRFSGSGSGTDFTLTISSLQPEDFATYYCQQSQISPPTFGQGTKVEIK
B10: V3-46s-1 phage clone (Fab, V domains shown)
VH: EVQLVESGGGLVQPGGSLRLSCAASGFTISSSSIHWVRQAPGKGLEWVAWVLPSVGFTDYADSVKGRFTISADTSKNTAYLQMNSLRAEDTAVYYCARRVCYNRLGVCAGGMDYWGQGTLVTVSS
VL: DIQMTQSPSSLSASVGDRVTITCRASEDIATSVAWYQQKPGKAPKLLIFAASFLYSGVPSRFSGSGSGTDFTLTISSLQPEDFATYYCQQSQISPPTFGQGTKVEIK
B11: V3-46s-34 phage clone (Fab, V domains shown)
VH: EVQLVESGGGLVQPGGSLRLSCAASGFTISSSSIHWVRQAPGKGLEWVAWVLPSVGFTDYADSVKGRFTISADTSKNTAYLQMNSLRAEDTAVYYCARRVCYNRLGVCAGGMDYWGQGTLVTVSS
VL: DIQMTQSPSSLSASVGDRVTITCRASEDISSAVAWYQQKPGKAPKLLIFSASFLFSGVPSRFSGSGSGTDFTLTISSLQPEDFATYYCQQSQVSPPTFGQGTKVEIK
B12: V3-46s-12 phage clone (Fab, V domains shown)
VH: EVQLVESGGGLVQPGGSLRLSCAASGFTIASSSIHWVRQAPGKGLEWVAWVLPSVGFTDYADSVKGRFTISADTSKNTAYLQMNSLRAEDTAVYYCARRVCYNRLGVCAGGMDYWGQGTLVTVSS
VL: DIQMTQSPSSLSASVGDRVTITCRASEDISSAVAWYQQKPGKAPKLLIFAASFLYSGVPSRFSGSGSGTDFTLTISSLQPEDFATYYCQQSQISPPTFGQGTKVEIK
notes: differs from V3-46s in CDR-H1 as well
B13: V3-46s-31 phage clone (Fab, V domains shown)
VH: EVQLVESGGGLVQPGGSLRLSCAASGFTISSSSIHWVRQAPGKGLEWVAWVLPSVGFTDYADSVKGRFTISADTSKNTAYLQMNSLRAEDTAVYYCARRVCYNRLGVCAGGMDYWGQGTLVTVSS
VL: DIQMTQSPSSLSASVGDRVTITCRASQDIATSVAWYQQKPGKAPKLLIFAASYLFSGVPSRFSGSGSGTDFTLTISSLQPEDFATYYCQQSQVSPPTFGQGTKVEIK
B14: V3-46s-45 phage clone (Fab, V domains shown)
VH: EVQLVESGGGLVQPGGSLRLSCAASGFTISSSSIHWVRQAPGKGLEWVAWVLPSVGFTDYADSVKGRFTISADTSKNTAYLQMNSLRAEDTAVYYCARRVCYNRLGVCAGGMDYWGQGTLVTVSS
VL: DIQMTQSPSSLSASVGDRVTITCRASEDVSSAVAWYQQKPGKAPKLLIFAASYLFSGVPSRFSGSGSGTDFTLTISSLQPEDFATYYCQHSQVSPPTFGQGTKVEIK
B15: V3-46s-10 phage clone (Fab, V domains shown)
VH: EVQLVESGGGLVQPGGSLRLSCAASGFTISSSSIHWVRQAPGKGLEWVAWVLPSVGFTDYADSVKGRFTISADTSKNTAYLQMNSLRAEDTAVYYCARRVCYNRLGVCAGGMDYWGQGTLVTVSS
VL: DIQMTQSPSSLSASVGDRVTITCRASEDISSAVAWYQQKPGKAPKLLIFAASYLFSGVPSRFSGSGSGTDFTLTISSLQPEDFATYYCQQSQVSPPTFGQGTKVEIK
B16: V3-46s-40 phage clone (Fab, V domains shown)
VH: EVQLVESGGGLVQPGGSLRLSCAASGFTISSSSIHWVRQAPGKGLEWVAWVLPSVGFTDYADSVKGRFTISADTSKNTAYLQMNSLRAEDTAVYYCARRVCYNRLGVCAGGMDYWGQGTLVTVSS
VL: DIQMTQSPSSLSASVGDRVTITCRASEEIATSVAWYQQKPGKAPKLLIFSASYLYSGVPSRFSGSGSGTDFTLTISSLQPEDFATYYCQQSQVSPPTFGQGTKVEIK
B17: V3-46s-13 phage clone (Fab, V domains shown)
VH: EVQLVESGGGLVQPGGSLRLSCAASGFTISSSSIHWVRQAPGKGLEWVAWVLPSVGFTDYADSVKGRFTISADTSKNTAYLQMNSLRAEDTAVYYCARRVCYNRLGVCAGGMDYWGQGTLVTVSS
VL: DIQMTQSPSSLSASVGDRVTITCRASEEIATAVAWYQQKPGKAPKLLIFAASYLFSGVPSRFSGSGSGTDFTLTISSLQPEDFATYYCQQSQVAPPTFGQGTKVEIK
B18: chimeric 9.1 IgG (antibody, V domains shown)
VH: EVKLVESGGGLVQPGGSLRLSCAISGFTVTAYYMSWVRQPPGKALEWLGFIRDKANGYTTEYNPSVKGRFTISRDNSQSIFYLQMNTLRAEDSATYYCAQVRRALDYWGQGTTVTVSA
VL: DIVMSQSPSSLAVSVGEKVTMSCKSSQSLLYSSNQNNYLAWYQQKPGQSPKLLIYWASTRESGVPDRFTGSGSGTDFTLTISSVKAEDLAVYYCQQYYTYPYTFGGGT
notes: also called Ch 9.1 IgG; ch 9.1

Key:
[1] = target: T1, human BR3 extracellular domain (human, UniProt Q96RJ3 1-61); test: SPR, BR3 ECD on chip;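 note: Anti-BR3 antibodies passed over the chip at high flow in PBS with 0.05% polysorbate 20, on and off rates fitted together globally to a 1:1 binding model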
T1 construct: biotinylated where used as tracer; also called hBR3-ECD; BR3-ECD

[2] = target: T2, variant human BR3-Fc fusion; test: SPR, vBR3-Fc on chip;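 note: Anti-BR3 antibodies passed over chip-bound BR3-Fc in PBS with 0.05% polysorbate 20, on and off rates fitted together globally to a 1:1 binding model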
T2 construct: produced in CHO cells; also called vBR3-Fc; vhBR3-Fc
Experimental: After coupling, unoccupied sites on the chip were blocked by injecting 20 μl of 1M ethanolamine, pH 8.5. The running buffer was PBS containing 0.05% polysorbate 20. […] The binding surface was regenerated by injecting 20-30 μl of 10 mM glycine.HCl (pH 1.5). […] Data were analyzed using a 1:1 binding model using global fitting. The association and dissociation rate constants were fitted simultaneously (BIAevaluation software).
A high flow rate was used in order to minimize mass transport effects.

[3] = target: T3, human BR3 expressed on cells (human, UniProt Q96RJ3 1-184); test: BJAB cells, competition with biotin-BAFF
T3 construct: whole, on cells; also called BR3 on BJAB cells; cell surface BR3
Experimental: The diluted samples were added to the pelleted BJAB cells in 96 well plates as described above. After 45 min incubation on ice, the cells were washed twice with 200 μl cold assay buffer, and streptavidin-HRP (AMDEX, Amersham Biosciences, Piscataway, N.J.) diluted 1/5,000 in assay buffer was added (100 μl/well). The plates were incubated for a final 45 min on ice. After washing twice with cold assay buffer, color was developed using TMB, the reaction was stopped with H₃PO₄, and the plates were read as described above.

[4] = target: T1, human BR3 extracellular domain; test: phage competition ELISA
[5] = target: T4, mouse BR3 extracellular domain (mouse, UniProt Q9D8D0 1-64); test: phage competition ELISA
T4 construct: also called mBR3-ECD; mBR-ECD
T4 sequence: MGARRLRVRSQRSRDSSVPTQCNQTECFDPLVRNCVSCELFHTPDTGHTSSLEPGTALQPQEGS

[6] = target: T1, human BR3 extracellular domain; test: phage competition ELISA; remark: listed apart in the source
[7] = target: T4, mouse BR3 extracellular domain; test: phage competition ELISA; remark: listed apart in the source
[8] = target: T3, human BR3 expressed on cells; test: BJAB cells, direct binding
Experimental: Direct and competitive binding assays were performed as follows. For the direct binding assay, IgG antibody samples were serially diluted in cold assay buffer to concentrations ranging between 300-0.02 nM. Samples (100 μl) were added to the pelleted cells, and the plates were incubated for 45 min on ice. An additional 100 μl assay buffer was then added to each well, and the plates were centrifuged at 1200 rpm for 5 min at 4° C. After carefully aspirating the supernatant, the cells were washed two additional times with 200 μl assay buffer. An anti-mouse IgG Fc-HRP or goat anti-human IgG Fc-HRP, as appropriate, was diluted 1/10,000 in cold assay buffer was added (100 μl/well, Jackson ImmunoResearch, West Grove, Pa.), and the plates were incubated on ice for 45 min. Following two washes with 200 μl cold assay buffer, tetramethyl benzidine (TMB, Kirkegaard & Perry Laboratories, Gaithersburg, Md.) was added, and color was allowed to develop for 10 min. One hundred microliters 1 M H₃PO₄ was added to stop the reaction. The plates were then read on a microplate reader at 450 nm with a 620 nm reference. In the direct binding assay, the indicated concentrations of mAbs were added to BJAB cells and bound mAb was detected.

| Binder | IC50 [6] | IC50 [7] | other results |
| --- | --- | --- | --- |
| B1 |  |  | Kd [1]: 37 pM; koff [1]: 6.6e-05 s⁻¹; kon [1]: 1.77e+06 M⁻¹ s⁻¹; Kd [2]: 253 pM; koff [2]: 0.000121 s⁻¹; kon [2]: 477000 M⁻¹ s⁻¹; IC50 [3]: 5100 pM |
| B2 |  |  | IC50 [4]: 800 pM; IC50 [5]: 21900 pM |
| B3 | 190 pM | 960 pM |  |
| B4 | 80 pM | 550 pM |  |
| B5 |  |  | IC50 [4]: 400 pM; IC50 [5]: 600 pM |
| B6 |  |  | IC50 [4]: 200 pM; IC50 [5]: 800 pM |
| B7 | 100 pM | 724 pM |  |
| B8 |  |  | IC50 [4]: 700 pM; IC50 [5]: 1300 pM |
| B9 | 131 pM | 320 pM |  |
| B10 | 70 pM | 300 pM |  |
| B11 | 58 pM | 790 pM |  |
| B12 | 53 pM | 209 pM |  |
| B13 | 120 pM | 342 pM |  |
| B14 | 121 pM | 370 pM |  |
| B15 | 50 pM | 193 pM |  |
| B16 | 164 pM | 530 pM |  |
| B17 | 80 pM | 713 pM |  |
| B18 |  |  | Kd [2]: 170 pM; EC50 [8]: 360 pM |
